# Measured values: US20250282881A1 (SHANGHAI EPIMAB BIOTHERAPEUTICS, published 2025)
# T1: human OX40 on cells (CHO-K1-hOX40, CHO-OX40, Jurkat-OX40 reporter cells) (human, UniProt P43489 29-277)
# T1 sequence: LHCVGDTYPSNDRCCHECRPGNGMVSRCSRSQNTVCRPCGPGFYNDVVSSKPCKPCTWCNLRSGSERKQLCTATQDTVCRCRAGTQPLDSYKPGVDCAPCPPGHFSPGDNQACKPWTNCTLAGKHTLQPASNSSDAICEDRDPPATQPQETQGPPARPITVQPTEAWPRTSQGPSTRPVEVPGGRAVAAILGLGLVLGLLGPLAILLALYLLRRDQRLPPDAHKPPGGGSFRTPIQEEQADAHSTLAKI
# T2: recombinant human OX40/His fusion protein (Novoprotein, CB17) (human, UniProt P43489 29-216)
# T2 construct: Bought protein
# T2 sequence: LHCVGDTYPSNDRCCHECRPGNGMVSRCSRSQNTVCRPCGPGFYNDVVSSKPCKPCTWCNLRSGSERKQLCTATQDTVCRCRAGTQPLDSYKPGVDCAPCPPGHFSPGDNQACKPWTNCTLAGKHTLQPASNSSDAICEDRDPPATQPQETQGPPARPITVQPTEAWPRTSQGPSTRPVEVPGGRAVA
# B1: EM1007-44c (antibody, human IgG1, V domains shown)
# VH: QVQLQQSGPELVKPGASVTISCKASGHAFSSSWMNWVKQRPGKGLEWIGRIYPGDEITNYNGKFKDKATLTADKSSSTAYMQLSSLTFEDSAVYFCARDLLMPYWGQGTLVTVSA
# VL: DIVMTQTAFSNPVTLGTSASISCRSSKSLLYSNGITYLYWYLQKPGQSPHLLIYQMSNLAPGVPDRFSSSGSGTDFTLRISRVEAEDVGIYYCAQNLELPFTFGSGTKLEIK
# notes: also called EM1007-mAb044c; EM1007-044c
# B2: EM0005-86c (antibody, V domains shown)
# VH: QVQLQQSGAELVRPGSSVKMSCKTSGYTFTTYGINWVKQRPGQGLEWIGYIYIGNGYTEYNEKFKGKATLTSDPSSRTAYMQLSSLTSEDSAIYFCARDLMVIAPKTMDYWGQGTSVTVSS
# VL: DIQMNQSHKFMSTSVGDRVSITCKASQDVGTAVAWYQQKPGQSPKLLIYWASTRHTGVPDRFTGGGSGTDFTLTISNVQSEDLADYFCQQYSSYPYTFGGGTKLEMK
# notes: Chimeric anti-PD-L1; captured on anti-human IgG Fc sensors
# Columns and labels:
# [1] = biological target: T1, human OX40 on cells (CHO-K1-hOX40, …); test: cell-based or functional assay
# [2] = biological target: T2, recombinant human OX40/His fusion …; test: BLI (Octet RED96), antibody on AHC sensor, OX40/His as analyte, test group 4
# Protocol: (§1) All 17 antibodies in Table 4 were expressed by transient transfection of HEK293 cell, purified by Protein A chromatography, and assayed for and ranked by dissociation rate constant (koff). Briefly, antibodies binding affinities and kinetics were characterized by Octet® RED96 biolayer interferometry (Pall FortéBio LLC). Antibodies were captured by Anti-hIgG Fc Capture (AHC) Biosensors (Pall) at a concentration of 100 nM for 120 seconds. After that, sensors were dipped into running buffer (1× pH 7.2 PBS, 0.05% Tween 20, 0.1% BSA) for 60 seconds to check the baseline, then dipped into recombinant human OX40/His fusion protein (Novoprotein, CB17) at assigned concentration for 200 seconds to measure binding, followed by dipped into running buffer for 600 seconds for dissociation. The assay was conducted in four test groups (as listed in Table 5) all containing the EM1007-044c chimeric antibody as the basis for normalization. The association and dissociation curves were fitted to a 1:1 Langmuir binding model using ForteBio Data Analysis software (Pall) to obtain the off-rate constants as shown in Table 5 below. The off-rate of each antibody was compared to that of the EM1007-mAb044c chimeric antibody in the same test group obtained in parallel to produce the corresponding off-rate ratio, serving as a normalized index. The normalized index of an antibody indicates higher affinity for human OX40.
# [3] = biological target: T1, human OX40 on cells (CHO-K1-hOX40, …); test: FACS on CHO-K1-hOX40 cells
# Protocol: (§2) The purified chimeric antibody was designated EM1007-44c. Binding activity to human or Cyno OX40 on the cell surface was assessed by FACS. Briefly, 5×10⁵ cells were seeded into each well of a 96-well plate (Corning, #3799). Cells were centrifuged at 400 g for 5 minutes and supernatants were discarded. For each well, 100 μl of 3× serial dilution of antibody starting from 100 nM was then added and mixed with the cells. After 60 minutes of 4° C. incubation, plates were washed to remove excess antibody. […] After another round of centrifugation and washing, cells were resuspended in FACS buffer for reading on a CytoFLEX Flow Cytometer (Beckman Coulter). Median Fluorescence Intensity (MFI) readouts were plotted against antibody concentration and analyzed with GraphPad Prism 8.0. The ability of OX40 to activate downstream signaling was detected in a Jurkat-OX40-NF-κB luciferase assay. Briefly, high binding plates (Corning, #3361) were coated with 3× serial dilution of EM1007-44c starting from 100 nM at 4° C. overnight, washed, then seeded with 1×10⁵ cells per well of OX40-NF-κB reporter and incubate at 37° C. for 6 hours. At the end of incubation, ONE-Glo™ luminescence assay kit (Promega, Cat. #E6130) reagents were prepared and added according to the manufacturer's instructions. Plates were read for luminescence signals on Varioskan™ LUX microplate reader (ThermoFisher Scientific).
# [4] = biological target: T2, recombinant human OX40/His fusion …; test: BLI (Octet RED96), antibody on AHC sensor, OX40/His as analyte, test group 4 (the reference itself)
# Protocol: as §1, with “The normalized index of an antibody indicates higher affinity for human OX40.” left out
# [5] = biological target: T2, recombinant human OX40/His fusion …; test: BLI (Octet RED96), antibody on AHC sensor, OX40/His as analyte, test group 1 (the reference itself)
# Protocol: as §1, with “The normalized index of an antibody indicates higher affinity for human OX40.” left out
# [6] = biological target: T2, recombinant human OX40/His fusion …; test: BLI (Octet RED96), antibody on AHC sensor, OX40/His as analyte, test group 1
# Protocol: as §1
# [7] = biological target: T2, recombinant human OX40/His fusion …; test: BLI (Octet RED96), antibody on AHC sensor, OX40/His as analyte, test group 2 (the reference itself)
# Protocol: as §1, with “The normalized index of an antibody indicates higher affinity for human OX40.” left out
# [8] = biological target: T3, cyno OX40 on cells (CHO-K1-cOX40) (cyno); test: FACS on CHO-K1-cOX40 cells
# T3 construct: whole, on cells; also called Cyno OX40 on the cell surface
# Protocol: as §2
# [9] = biological target: T2, recombinant human OX40/His fusion …; test: BLI (Octet RED96), antibody on AHC sensor, OX40/His as analyte, test group 3
# Protocol: as §1
# [10] = biological target: T2, recombinant human OX40/His fusion …; test: BLI (Octet RED96), antibody on AHC sensor, OX40/His as analyte, test group 3 (the reference itself)
# Protocol: as §1, with “The normalized index of an antibody indicates higher affinity for human OX40.” left out
# [11] = biological target: T2, recombinant human OX40/His fusion …; test: BLI (Octet RED96), antibody on AHC sensor, OX40/His as analyte, test group 2
# Protocol: as §1
# [12] = biological target: T4, recombinant human PD-L1/His fusion protein (Novoprotein, Cat. No. C315) (human, UniProt Q9NZQ7 19-239); test: BLI (Octet RED96), antibody on AHC sensor, PD-L1/His as analyte, test group 1 (the reference itself)
# T4 construct: also called recombinant human PD-L1-his protein
# T4 sequence (Q9NZQ7 19-239 limits assumed): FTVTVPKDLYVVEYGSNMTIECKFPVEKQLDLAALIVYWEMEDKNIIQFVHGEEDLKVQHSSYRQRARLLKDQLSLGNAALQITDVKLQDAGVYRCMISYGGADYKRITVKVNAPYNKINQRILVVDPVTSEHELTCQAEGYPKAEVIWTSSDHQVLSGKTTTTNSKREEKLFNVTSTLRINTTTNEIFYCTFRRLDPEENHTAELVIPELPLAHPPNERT
# From the text: (§3) Based on titer and purity, 10 of the 50 humanized antibodies were selected and further assayed in two groups for dissociation rate constant (koff) as shown in Table 7. Chimeric antibody EM0005-86c having VH/VL sequences identical to EM0005-mAb86 (as provided in Table 6) was used as a positive control in each group and served as a basis for normalization. Briefly, antibodies were characterized for affinities and binding kinetics by Octet® RED96 biolayer interferometry (Pall FortéBio LLC). Anti-hIgG Fc Capture (AHC) Biosensors (Pall) with antibody captured at a concentration of 100 nM for 120 seconds were dipped into running buffer (1× pH 7.2 PBS, 0.05% Tween 20, 0.1% BSA) for 60 seconds to check the baseline, then dipped into a single concentration of recombinant human PD-L1/His fusion protein (Novoprotein, Cat. No. C315) to measure binding for 200 seconds, followed by dipped into running buffer to measure dissociation for 600 seconds. The association and dissociation curves were fitted to a 1:1 Langmuir binding model using FortéBio Data Analysis software (Pall). The off-rate ratios shown in Table 7 were calculated by off-rate of a humanized antibody to that of EM0005-86c in the same test group. The off-rate ratio serves as a normalized index, so that the humanized antibodies can be compared to one another across test groups. […]
# [13] = biological target: T4, recombinant human PD-L1/His fusion …; test: BLI (Octet RED96), antibody on AHC sensor, PD-L1/His as analyte, test group 2 (the reference itself)
# From the text: as §3
# [14] = biological target: T4, recombinant human PD-L1/His fusion …; test: BLI (Octet RED96), antibody on AHC sensor, PD-L1/His as analyte, test group 2
# From the text: as §3
# [15] = biological target: T4, recombinant human PD-L1/His fusion …; test: BLI (Octet RED96), antibody on AHC sensor, PD-L1/His as analyte, test group 1
# From the text: Based on titer and purity, 10 of the 50 humanized antibodies were selected and further assayed in two groups for dissociation rate constant (koff) as shown in Table 7. Chimeric antibody EM0005-86c having VH/VL sequences identical to EM0005-mAb86 (as provided in Table 6) was used as a positive control in each group and served as a basis for normalization. Briefly, antibodies were characterized for affinities and binding kinetics by Octet® RED96 biolayer interferometry (Pall FortéBio LLC). Anti-hIgG Fc Capture (AHC) Biosensors (Pall) with antibody captured at a concentration of 100 nM for 120 seconds were dipped into running buffer (1× pH 7.2 PBS, 0.05% Tween 20, 0.1% BSA) for 60 seconds to check the baseline, then dipped into a single concentration of recombinant human PD-L1/His fusion protein (Novoprotein, Cat. No. C315) to measure binding for 200 seconds, followed by dipped into running buffer to measure dissociation for 600 seconds. The association and dissociation curves were fitted to a 1:1 Langmuir binding model using FortéBio Data Analysis software (Pall). The off-rate ratios shown in Table 7 were calculated by off-rate of a humanized antibody to that of EM0005-86c in the same test group. The off-rate ratio serves as a normalized index, so that the humanized antibodies can be compared to one another across test groups. The lower off-rate ratio indicates higher affinity of an antibody for human PD-L1. HuEM0005-86-21 was selected for further investigation based on the purity and off-rate data.
Binder,"OX40-Jurkat-NF-κB-Reporter, EC50 [1]","OX40-Jurkat-NF-κB-Reporter, Maximal fold change [1]",koff [2],EC50 [3],Normalized Index (off-rate ratio to EM1007-mAb044c) [4],Normalized Index (off-rate ratio to EM1007-mAb044c) [5],koff [6],Normalized Index (off-rate ratio to EM1007-mAb044c) [7],EC50 [8],koff [9],Normalized Index (off-rate ratio to EM1007-mAb044c) [10],koff [11],Off-Rate Ratio to EM0005-86c [12],Off-Rate Ratio to EM0005-86c [13],koff [14],koff [15]
B1,0.43 nM,1.52 fold,0.000279 s⁻¹,2.6 nM,100%,100%,0.000336 s⁻¹,100%,2.11 nM,0.000305 s⁻¹,100%,0.000318 s⁻¹,–,–,–,–
B2,–,–,–,–,–,–,–,–,–,–,–,–,100%,100%,0.000146 s⁻¹,0.000272 s⁻¹
